Assay results from patent publication US20140121131A1 (AFFINITY BIOSCIENCES, published 2014).

What was measured:
biotinylated His6-GFP [1] = molecular target: T1, biotinylated His6-GFP (UniProt P42212 1-238 = GFP); assay: phage capture on streptavidin Dynal beads labelled with biotinylated His6-GFP; fusion protein not induced; reference is Hy5 phage with wild-type gpL
T1 construct: Held on streptavidin magnetic particles or Dynal beads; also called biotinylated eGFP; Biotin-labeled eGFP; not shown: His6 tag

biotinylated His6-GFP [2] = molecular target: T1, biotinylated His6-GFP; assay: phage capture on streptavidin Dynal beads labelled with biotinylated His6-GFP; fusion protein induced with arabinose; reference is Hy5 phage with wild-type gpL

B1: αGFP::I27::gpL fusion protein (VHH)
chain: MGDGMQVQLVESGGALVQPGGSLRLSCAASGFPVNRYSMRWYRQAPGKEREWVAGMSSAGDRSSYEDSVKGRFTISRDDARNTVYLQMNSLKPEDTAVYYSNVNVGFEYWGQGTQVTVSSNSSSQTSLIEVEKPLYGVEVFVGETAHFEIELSEPDVHGQWKLKGQPLTASPDCEIIEDGKKHILILHNCQLGMTGEVSFQAANAKSAANLKVKELNSSSDYKDDDDKGNGTLIIPRKEAPVSGEGTVVIPQPAGDEPVIKNTFFFPDIDPKRVRERMRLEQTVAPARLREAIKSGMAETNAELYEYREQKIAAGFTRLADVPADDIDGESIKVFYYERAVCAMATASLYERYRGVDASAKGDKKADSIDSTIDELWRDMRWAVARIQGKPRCIVSQI
notes: also called Hy5 + αGFP:I27:gpL; gpL capsid fusion protein
For B1, the “Enrichment (fold over Hy5)” value (biotinylated His6-GFP [1]) was 6.5 fold over Hy5 and the “Enrichment (fold over Hy5)” value (biotinylated His6-GFP [2]) was 82 fold over Hy5.
